From US20230257435A1, “Wound Healing Composition and Uses Thereof” (AGENCY FOR SCIENCE, TECHNOLOGY AND RESEARCH, priority 2020, published 2023)

Legend:
[1] = test system: mouse skin punch wounds; assay: Punch-biopsy wound healing model, non-splinted; assay type: in vivo
Experimental: Six to eight to week old female experimental ICR (nomenclature: IcrTac:ICR) mice purchased from InVivos were used for punch-biopsy wound healing in vivo assays. In the ex-vivo mouse skin explant assay, random ratios of male and female new born ICR mouse pups were used. Wherever possible, the experiments were performed taking into consideration an ethical and reductionist approach of animal usage. Animal studies were not performed in a blinded fashion. The animals were randomly assigned to different experimental groups. The number of animals used for each experiment is indicated in the legend as n=x mice per group. All animal experiments performed were done in accordance with experimental protocols reviewed by the Biological Resource Center (BRC), Agency for Science Technology and Research (A*STAR) under strict compliance to the Institutional Animal Care and Use Committee (IACUC) guidelines for ethical use of animal models in biological research.
The mice were housed under standard conditions of 21° C. and a 12 h light-dark cycle with free access to food. Subsequently, the mice were intraperitoneally (i.p.) anesthezised using Ketamine 100 mg/kg and Xylazin 10 mg/kg diluted in […] of saline solution. The fur was shaved from the base of the neck towards the back on the entire shoulder region. The skin was wiped with an alcohol swab and 10% povidone-iodine (Betadine) antiseptic solution. Circular symmetrical 4 mm wounds were inflicted on either side of the midline in the shoulder region using a sterile 4 mm punch biopsy needle (Integra Miltex, Integra York, P.A., Inc.). The wound skin was carefully removed using a scalpel and a pair of scissors to generate a full-thickness wound that were left open for topical administrations during the analysed time periods. For splinted wound healing models, a 10 mm transparent donut shaped nylon sheet (Grace Bio-Laboratories, Bend, Oreg.) was placed around the 4 mm wound. The splint was placed with the wound at the center, glued to the skin by adhesive (Krazy Glue®; Elmer's Inc.), and covered by Tegaderm dressing. The wounds were treated with different formulations based on either petroleum jelly (Vaseline), a thermoresponsive hydrogel (Pluronic F127-Sigma) or a commercially available skin ointment (Aquaphore-Beiersdorf, Inc.). For Vaseline based ointment cream preparation, 10 mg per cm^2 vaseline ointment was mixed with filtered PBS solutions containing the indicated amounts of Agrin (100 μg, 200 μg or 500 μg) and 100 μg BSA (w/w) were used and applied topically every two days. For siRNA mediated knockdown experiments, 75 nM of indicated siRNAs were incubated with lipofectamine in PBS. Subsequently, a 1:1 mixture of PBS (containing the siRNAs): Aquaphore was applied topically on the wound region every two days. A topical formulation comprising of 20% (w/w) Pluronic F127 (Sigma) was used to dissolve in sterile and 0.22μ filtered solution containing a final concentration of 200 μg/ml sAgrin or BSA. This mixture was dissolved overnight at 4° C. to ensure that liquid phase is achieved. The mixture forms a homogenous gel at temperatures above ˜20° C. and was dispersed topically to cover the wound. Wound closure was assessed using a Vernier caliper every alternate day. For both models, the animals were caged individually throughout the observed time-points of healing at the institutional animal facility. All wound healing animal experiments performed were done in accordance with experimental protocols reviewed by the Biological Resource Center (BRC), Agency for Science Technology and Research (A*STAR) under strict compliance to the Institutional Animal Care and Use Committee (IACUC) guidelines for ethical use of animal models in biological research.
Human skin equivalents and mice skin tissues were harvested, embedded, and subjected to routine histology using Hematoxylin and Eosin. For immunostaining, the tissues were fixed for 24 h in 10% neutral buffered formalin solution. […]

[2] = test system: mouse skin wounds; assay: Cytokine and chemokine expression in mouse skin wounds; assay type: in vivo
Experimental: The photographs of a representative wound for each condition is shown above. The respective p values for the selected group of significant genes are represent in tabular form (n=3 mice per group, Multiple t tests). (b) Western blot analysis in the mouse skin treated as in (a) showing the protein expression of selected proteins. GAPDH served as a loading control (n=2 independent mice wounds were analyzed for each group).
Indicated cells post-manipulation were washed twice with cold Phosphate buffered saline (PBS) and lysed with cold 1% NP-40 lysis buffer supplemented with 1× protease inhibitor cocktail (Roche Applied Biosciences) for 15 mins at 4° C. […] The density of the various bands was quantified using the Image-J software.
Total RNA was extracted from indicated cells using Qiagen RNeasy mini kit as per the manufacturer's recommended protocol. […] For RNA-sequencing, the RNA quality was analyzed on a Bioanalyzer instrument (Agilent) using the Agilent RNA 6000 Pico Kit. […] Purified libraries were quantified by qPCR (KAPA Library Quantification Kit for Illumina, Roche). […] The condition of sequencing was represented by a single read high output run at 75 bp read length. Raw reads from fastq files were aligned to the hg38 genome using STAR 2.6.1d. […] The relative number of reads mapping to each gene was quantified with htseqcount on features from the gtf file gencode.v29.annotation.gtf. […]

B1: sAgrin: C-terminus recombinant Agrin fragment containing 8 amino acid 'Z8' insert and LG3 domain (SEQ ID NO: 7), His-tagged, expressed in E. coli (protein)
chain: DTLAFDGRTFVEYLNAVTESELANEIPVEKALQSNHFELSLRTEATQGLVLWSGKATERADYVALAIVDGHLQLSYNLGSQPVVLRSTVPVNTNRWLRVVAHREQREGSLQVGNEAPVTGSSPLGATQLDTDGALWLGGLPELPVGPALPKAYGTGFVGCLRDVVVGRHPLHLLEDAVTKPELRPCPTP
modifications: His tag
migratory epithelial tongue from wound edges ([1]; day 2): significant extension of the migratory epithelial tongue | K17 outgrowth, MMP12 expression and pMLC activation ([1]; day 2, wound edges and beds): robust K17 expressing keratinocyte outgrowth, MMP12 expression and pMLC activation | angiogenesis (blood vessel number and diameter) ([1]; day 6): steady enhancement in angiogenesis with an increased number of blood vessels and their respective diameters | Ki67+ve proliferating cells ([1]; day 7 post-injury): enhancement of Ki67+ve proliferating cells | rates of wound healing, Pluronic F-127 hydrogel ([1]; sAgrin 200 μg vs control hydrogel): significantly boosted the rates of wound healing in vivo | healing rates of punch wounds, Vaseline ointment ([1]; sAgrin 100, 200 or 500 μg in Vaseline vs BSA): significantly accelerated the healing rates of mice punch wounds in a dose-dependent fashion | protein expression of TGF-β1, VEGF-A and MCP-1 ([2]; vs BSA and Collagen): augmented protein expression(s) of TGF-β1, VEGF-A and MCP-1 | mRNA of TGF-β1, VEGF-A, MCP-1, MIP-1β and MIP-2 ([2]; within 48 h post-injury, vs BSA or Collagen): significantly induced
